Changes are numbered by the printed parent chain. Where “and” joins values, the source holds several entries; their conditions need not be identical. Identical values can stand only once.
B1: murine 3F8 antibody (antibody, V domains shown)
VH: DVQLQESGPGLVKPSQSLSLTCSVTGYSITSAYYWNWIRQFPGDKLEWMGYISYDGRNNFNPSLKNRISITRDTSKNQFFLKLNSVTSGDTATYYCARDGDYDYFDYWGQGTTLTVSS
VL: DIQMTQTTSSLSASLGDRVTISCRASQDISNYLNWYQQKPDGTFKLLIYYTSILHSGVPSRFSGSGSGTDYSLTISNLEQEDIATYFCQQGDTLPPTFGAGTKLELK
notes: Mouse hybridoma antibody, made by hybridoma or recombinantly; also called m3F8
B2: chimeric 3F8 antibody (antibody, human IgG1, V domains shown)
VH: B1 VH
VL: B1 VL
notes: also called ch3F8; Chimeric antibody
B3: antibody-drug conjugate ADC-1-X1 (hu3F8-2-X1) (antibody, human IgG1, kappa, V domains shown)
VH: QVQLQESGPGLVKPSETLSLTCTVSGYSITSAYYWNWIRQPFGKGLEWMGYISYDGRNNFNPSLKNRVTISRDTSKNQFSLKLSSVTAADTAVYYCARDGDYDYFDYWGQGTTVTVSS
VL: DIQMTQSPSSLSASVGDRVTITCRASQDISNYLNWYQQKPGKAPKLLIYYTSILHSGVPSRFSGSGSGTDYTFTISSLQPEDIATYFCQQGDTLPPTFGGGTKLEIKR
modifications: linker-payload X1 coupled after TCEP reduction; positions not given; linker-payload X1 coupled after TCEP reduction; positions not given; DAR 7.12 for the whole antibody
B4: antibody-drug conjugate ADC-1-X2 (hu3F8-2-X2) (antibody, human IgG1, kappa, V domains shown)
VH: B3 VH
VL: B3 VL
modifications: linker-payload X2 coupled after TCEP reduction; positions not given; linker-payload X2 coupled after TCEP reduction; positions not given; DAR 7.53 for the whole antibody
B5: humanized 3F8 antibody hu3F8-2 (antibody, human IgG1, kappa, V domains shown)
VH: B3 VH
VL: B3 VL
notes: also called Clone 2; clone-2
B6: humanized 3F8 antibody hu3F8-1 (antibody, human IgG1, kappa, V domains shown)
VH: B3 VH with F42P, M49I, R72V
VL: B3 VL
notes: also called Clone 1; clone-1
B7: humanized 3F8 antibody hu3F8-3 (antibody, human IgG1, kappa, V domains shown)
VH: B3 VH with T69S, V93T
VL: B3 VL
notes: also called Clone 3; clone-3

Key:
[1] = molecular target: HER3 on tumor cell lines (NCI-N87, MDA-MB-468, MDA-MB-453, HCC1569 and other cells with different HER3 surface levels) (UniProt P21860); experiment: cell-based or functional assay
cynomolgus monkey HER3 = cynomolgus monkey HER3 (cynomolgus monkey, UniProt G7PIG5 20-643); experiment: ELISA
cynomolgus monkey HER3, sequence (G7PIG5 entry or part of it): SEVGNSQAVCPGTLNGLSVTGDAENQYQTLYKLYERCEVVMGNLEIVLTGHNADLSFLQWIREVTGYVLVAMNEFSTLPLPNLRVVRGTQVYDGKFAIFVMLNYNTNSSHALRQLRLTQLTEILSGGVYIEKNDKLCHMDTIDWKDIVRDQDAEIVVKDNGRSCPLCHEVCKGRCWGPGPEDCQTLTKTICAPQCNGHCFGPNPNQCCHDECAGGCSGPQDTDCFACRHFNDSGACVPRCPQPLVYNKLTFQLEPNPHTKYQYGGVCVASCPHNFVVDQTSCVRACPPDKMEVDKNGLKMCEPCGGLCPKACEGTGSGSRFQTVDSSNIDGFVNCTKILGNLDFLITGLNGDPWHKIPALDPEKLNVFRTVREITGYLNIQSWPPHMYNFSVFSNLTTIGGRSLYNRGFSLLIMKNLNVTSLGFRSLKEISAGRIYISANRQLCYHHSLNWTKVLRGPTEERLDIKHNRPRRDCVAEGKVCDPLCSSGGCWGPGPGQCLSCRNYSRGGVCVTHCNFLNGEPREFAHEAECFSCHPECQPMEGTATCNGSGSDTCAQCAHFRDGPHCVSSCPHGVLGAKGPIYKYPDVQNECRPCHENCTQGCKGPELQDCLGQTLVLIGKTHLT

human HER3-huFc [2] = molecular target: T1, human HER3-huFc (human, UniProt P21860 20-643); experiment: ELISA
T1 construct: also called huHER3; not shown: human Fc (huFc)

human HER3-huFc [3] = molecular target: T1, human HER3-huFc; experiment: ELISA, antigen coated
Description: (§1) ELISA assay: human HER2-ex-huFc, human HER3-huFc, and human EGFR-his were diluted to 2 μg/mL and 50 μL/well in a 96-well plate and incubated at 4° C. overnight. The plate was washed with 0.5×PBST, then incubated with 100 μL of a blocking buffer (PBS+3% BSA) at 37° C. for 2 h, and washed with 0.5×PBST. The 3F8 antibody was diluted with the blocking buffer in a 1:3 serial gradient, added at 50 μL/well, incubated at 37° C. for 40-50 min, and then washed with 0.5×PBST. […] Prior to assay, 50 μL of luminol buffer A+B was added to each well in a 1:1 mix.
EC50 of murine 3F8 binding to human HER3, HER2, and EGFR was analyzed using GraphPad Prism 6.0.

human HER2-ex-huFc = molecular target: T2, human HER2-ex-huFc (human, UniProt P04626 23-652); experiment: ELISA on coated antigen, luminescence readout
T2 construct: extracellular domain; 'ex' is read as extracellular domain; also called huHER2; not shown: human Fc (huFc)
Description: as §1
(§2) The binding affinities of murine 3F8 to human HER3, HER2 and EGFR were determined by ELISA.

human EGFR-his = molecular target: T3, human EGFR-his (human, UniProt P00533 25-645); experiment: ELISA on coated antigen, luminescence readout
T3 construct: also called huEGFR; not shown: His tag
Description: as §1, §2

mouse HER3 = mouse HER3 (mouse, UniProt Q61526 20-641, limits assumed); experiment: ELISA on coated antigen, luminescence readout
mouse HER3, sequence (Q61526 20-641 limits assumed): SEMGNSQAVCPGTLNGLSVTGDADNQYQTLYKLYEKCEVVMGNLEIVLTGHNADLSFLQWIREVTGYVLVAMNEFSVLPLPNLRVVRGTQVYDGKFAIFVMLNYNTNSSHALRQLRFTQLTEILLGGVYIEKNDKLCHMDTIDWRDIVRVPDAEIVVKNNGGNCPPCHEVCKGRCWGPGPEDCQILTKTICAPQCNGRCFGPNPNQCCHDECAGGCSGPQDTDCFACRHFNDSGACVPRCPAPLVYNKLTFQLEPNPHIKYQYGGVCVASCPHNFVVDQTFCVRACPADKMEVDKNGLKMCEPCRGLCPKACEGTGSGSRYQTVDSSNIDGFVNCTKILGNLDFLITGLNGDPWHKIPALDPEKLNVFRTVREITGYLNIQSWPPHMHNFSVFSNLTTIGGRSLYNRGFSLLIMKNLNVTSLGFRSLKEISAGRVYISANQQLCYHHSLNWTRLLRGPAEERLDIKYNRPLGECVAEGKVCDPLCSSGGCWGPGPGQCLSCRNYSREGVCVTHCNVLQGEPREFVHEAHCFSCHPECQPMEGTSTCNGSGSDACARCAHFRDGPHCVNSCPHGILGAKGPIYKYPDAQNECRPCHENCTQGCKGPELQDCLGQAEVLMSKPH

rat HER3 = rat HER3 (rat, UniProt Q62799 20-641, limits assumed); experiment: ELISA on coated antigen, luminescence readout
rat HER3, sequence (Q62799 20-641 limits assumed): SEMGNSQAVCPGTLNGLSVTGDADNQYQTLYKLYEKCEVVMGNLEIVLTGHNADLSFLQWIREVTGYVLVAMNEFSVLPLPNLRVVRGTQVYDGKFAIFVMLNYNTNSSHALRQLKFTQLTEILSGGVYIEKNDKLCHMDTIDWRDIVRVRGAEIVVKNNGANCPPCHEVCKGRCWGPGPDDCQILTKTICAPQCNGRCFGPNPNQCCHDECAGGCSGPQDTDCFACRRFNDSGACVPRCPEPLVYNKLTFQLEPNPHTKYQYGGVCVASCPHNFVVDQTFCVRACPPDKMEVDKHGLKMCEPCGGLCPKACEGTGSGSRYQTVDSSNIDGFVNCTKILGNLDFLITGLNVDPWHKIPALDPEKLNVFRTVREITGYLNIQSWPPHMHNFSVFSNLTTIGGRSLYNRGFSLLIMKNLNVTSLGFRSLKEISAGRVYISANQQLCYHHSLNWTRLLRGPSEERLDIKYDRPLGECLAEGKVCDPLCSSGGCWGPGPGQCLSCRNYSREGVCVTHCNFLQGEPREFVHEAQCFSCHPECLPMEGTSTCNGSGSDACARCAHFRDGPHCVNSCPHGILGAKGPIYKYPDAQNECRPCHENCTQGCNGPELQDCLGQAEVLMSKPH

[4] = molecular target: T4, human EGFR expressed on SP2/0 cells (human, UniProt P00533 25-1210); experiment: flow cytometry (FACS) on SP2/0 cells overexpressing human EGFR, PE anti-mouse secondary antibody
T4 construct: whole, on cells; also called SP2/0-EGFR cells
Description: (§3) FACS assay: the cultured cells were digested with 0.25% trypsin-EDTA and then centrifuged at 1500 rpm for 5 min. The cell pellets were regenerated into 5×10⁶ cells/mL using a PBS FACS solution containing 5% FBS and 0.2% ProClin300. 50 μL of the cell suspension was incubated with 100 μL of the primary antibody at a concentration of 1 μg/mL on ice for 1 h. The cells were washed twice with the FACS solution. The pellets were regenerated using 100 μL of a FACS solution containing goat anti-mouse IgG-PE (1:1000 dilution) and incubated on ice in the dark for 1 h. The cells were then washed twice and resuspended in 200 μL of the FACS solution.
(§4) Murine 3F8 was co-incubated with SP2/0 wild-type cells or cells overexpressing HER3, HER2 or EGFR. The binding strength was measured in a FACS instrument with a PE-anti-mouse secondary antibody.

[5] = molecular target: T5, human HER2 expressed on SP2/0 cells (human, UniProt P04626 23-1255); experiment: flow cytometry (FACS) on SP2/0 cells overexpressing human HER2, PE anti-mouse secondary antibody
T5 construct: whole, on cells; also called SP2/0-HER2 cells
Description: as §3, §4

human HER3-huFc [6] = molecular target: T1, human HER3-huFc; experiment: ELISA, 0 days at 40 °C
Description: (§5) Antibody stability test: the purified antibody at 5 mg/mL was stored at 4° C. as regular practice, incubated at 40° C. for 7 days and 14 days for heat stability evaluation, transferred to a glycine solution at pH 3.5 for regeneration, and stored for 2, 4 and 6 h for acid stability evaluation, or subjected to repeated freeze-thaw treatments for 4 or 6 cycles for freeze-thaw stability evaluation. Aggregation was measured by SEC-HPLC, and binding affinity was determined by ELISA.
(§6) The chimeric antibody 3F8 was subjected to parallel assay.

human HER3-huFc [7] = molecular target: T1, human HER3-huFc; experiment: ELISA, 0 freeze-thaw cycles
His-HER3 = molecular target: T6, His-HER3 (UniProt P21860 20-643, limits assumed); experiment: SPR, Biacore T200, antibody captured on protein A chip, His-HER3 as analyte
T6 construct: Analyte of the Biacore assay; not shown: His tag
Description: Affinity assay by surface plasmon resonance (SPR): antibody kinetics and affinity were determined using Biacore T200. Briefly, the recombinant human HER3 antibody was immobilized on a protein A chip (GE, Cat. 29-1275-5).
The binding affinity of humanized 3F8 (hu3F8) and chimeric 3F8. Binding kinetics of 3 humanized 3F8 clones and chimeric 3F8 were determined by Biacore. Three humanized 3F8 clones (clone 1, clone 2 and clone 3) had different heavy chains and one identical light chain. Clone 1, clone 2, and clone 3 corresponded to hu3F8-1, hu3F8-2, and hu3F8-3, respectively.

[8] = molecular target: HER3 on tumor cell lines (NCI-N87, MDA-MB-468, MDA-MB-453, HCC1569 and other cells with different HER3 … (UniProt P21860 20-1342, limits assumed)); experiment: cell-based or functional assay
human HER3-huFc [9] = molecular target: T1, human HER3-huFc; experiment: ELISA after 7 days at 40 °C
Description: as §5, §6

human HER3-huFc [10] = molecular target: T1, human HER3-huFc; experiment: ELISA after 14 days at 40 °C
Description: as §5, §6

human HER3-huFc [11] = molecular target: T1, human HER3-huFc; experiment: ELISA after 3 freeze-thaw cycles
human HER3-huFc [12] = molecular target: T1, human HER3-huFc; experiment: ELISA after 5 freeze-thaw cycles
human HER3-huFc [13] = molecular target: T1, human HER3-huFc; experiment: ELISA after 0 h of incubation at pH 3.5
Description: as §5
(§7) EC50 was determined by ELISA.

human HER3-huFc [14] = molecular target: T1, human HER3-huFc; experiment: ELISA after 2 h of incubation at pH 3.5
Description: as §5, §7

human HER3-huFc [15] = molecular target: T1, human HER3-huFc; experiment: ELISA after 4 h of incubation at pH 3.5
Description: as §5, §7

human HER3-huFc [16] = molecular target: T1, human HER3-huFc; experiment: ELISA after 6 h of incubation at pH 3.5
Description: as §5, §7

human HER3-huFc [17] = molecular target: T1, human HER3-huFc; experiment: ELISA after 0 h of incubation at pH 3.5; 0 h of incubation at pH 3.5 (untreated time point)
Description: as §5, §7

Molecule	EC50 (human HER3-huFc [6])	EC50 (human HER3-huFc [7])	Kd (His-HER3)	koff (His-HER3)	kon (His-HER3)	EC50 (human HER3-huFc [9])	EC50 (human HER3-huFc [10])	EC50 (human HER3-huFc [11])	EC50 (human HER3-huFc [12])	EC50 (human HER3-huFc [14])	EC50 (human HER3-huFc [15])	EC50 (human HER3-huFc [16])	also measured
Reference ADC-1 (U3-1402) (antibody)	–	–	–	–	–	–	–	–	–	–	–	–	HCC1569 IC50 (nM), inhibition of in vitro proliferation (CTG, 6 days) [1]: 40.7 nM; MDA-MB-453 IC50 (nM), inhibition of in vitro proliferation (CTG, 6 days) [1]: 9.62 nM
B1	–	–	–	–	–	–	–	–	–	–	–	–	EC50 (cynomolgus monkey HER3): 0.185 nM and 0.0278 µg/mL; EC50 (human HER3-huFc [2]): 0.164 nM and 0.0245 µg/mL; EC50 (human HER3-huFc [3]): 0.11 nM and 0.0165 µg/mL; binding result (human HER2-ex-huFc): no binding (tested: about 10^1.2 nM (about 16 nM)); binding result (human EGFR-his): no binding (tested: about 10^1.2 nM (about 16 nM)); binding result (mouse HER3): no binding (tested: about 10^1.2 nM (about 15 nM)); binding result (rat HER3): no binding (tested: about 10^1.2 nM (about 15 nM)); binding result [4]: no binding; binding result [5]: no binding
B2	0.0474 µg/mL	0.0471 µg/mL	0.624 nM	0.000391 s⁻¹	628000 M⁻¹ s⁻¹	–	–	–	–	–	–	–	–
B3	–	–	–	–	–	–	–	–	–	–	–	–	HCC1569 IC50 (nM), inhibition of in vitro proliferation (CTG, 6 days) [8]: 0.115 nM; MDA-MB-453 IC50 (nM), inhibition of in vitro proliferation (CTG, 6 days) [8]: 0.042 nM
B4	–	–	–	–	–	–	–	–	–	–	–	–	HCC1569 IC50 (nM), inhibition of in vitro proliferation (CTG, 6 days) [8]: 5.17 nM; MDA-MB-453 IC50 (nM), inhibition of in vitro proliferation (CTG, 6 days) [8]: 0.094 nM
B5	0.0454 µg/mL	0.0425 µg/mL	0.492 nM	0.000328 s⁻¹	666000 M⁻¹ s⁻¹	0.0481 µg/mL	0.052 µg/mL	0.0467 µg/mL	0.0438 µg/mL	0.0483 µg/mL	0.0445 µg/mL	0.0412 µg/mL	EC50 (human HER3-huFc [13]): 0.045 µg/mL
B6	0.0392 µg/mL	0.0454 µg/mL	1.09 nM	0.000612 s⁻¹	560000 M⁻¹ s⁻¹	0.0423 µg/mL	0.041 µg/mL	0.0443 µg/mL	0.0386 µg/mL	0.0381 µg/mL	0.0409 µg/mL	0.039 µg/mL	EC50 (human HER3-huFc [17]): 0.0387 µg/mL
B7	0.0424 µg/mL	0.0423 µg/mL	0.54 nM	0.000348 s⁻¹	644000 M⁻¹ s⁻¹	0.047 µg/mL	0.0413 µg/mL	0.0374 µg/mL	0.0336 µg/mL	0.0417 µg/mL	0.0394 µg/mL	0.0381 µg/mL	EC50 (human HER3-huFc [13]): 0.0387 µg/mL

Source: patent US20250295802A1, “HER3 ANTIBODY-DRUG CONJUGATE AND USE THEREOF” (DUALITY BIOLOGICS (SUZHOU) CO., LTD., priority 2022, published 2025)
